Measurements taken from patent US20260116980A1 (BEONE MEDICINES I, published 2026).
Changes are numbered by the printed parent chain. Names may count otherwise.

T1: human ECD-4Ig-B7H3-hFc (human, UniProt Q5ZPR3 29-466)
T1 construct: also called Human B7H3; human B7H3 antigen
T1 sequence: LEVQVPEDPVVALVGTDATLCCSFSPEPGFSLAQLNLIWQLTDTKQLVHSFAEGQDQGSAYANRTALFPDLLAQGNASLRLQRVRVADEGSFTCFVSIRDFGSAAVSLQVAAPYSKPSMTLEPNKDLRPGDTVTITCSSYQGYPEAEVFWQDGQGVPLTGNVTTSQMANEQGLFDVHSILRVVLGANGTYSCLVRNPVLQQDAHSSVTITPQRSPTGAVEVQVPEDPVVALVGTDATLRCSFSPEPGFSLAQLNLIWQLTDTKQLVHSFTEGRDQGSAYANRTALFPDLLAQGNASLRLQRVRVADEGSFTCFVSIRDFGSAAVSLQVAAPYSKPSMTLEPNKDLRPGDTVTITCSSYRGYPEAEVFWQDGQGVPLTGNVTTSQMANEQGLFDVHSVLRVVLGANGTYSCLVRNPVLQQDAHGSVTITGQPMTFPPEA

T2: human 4Ig-B7H3 on overexpressing cells (NK92mi/B7H3) (human, UniProt Q5ZPR3 29-534)
T2 construct: also called Human B7H3; native B7H3
T2 sequence: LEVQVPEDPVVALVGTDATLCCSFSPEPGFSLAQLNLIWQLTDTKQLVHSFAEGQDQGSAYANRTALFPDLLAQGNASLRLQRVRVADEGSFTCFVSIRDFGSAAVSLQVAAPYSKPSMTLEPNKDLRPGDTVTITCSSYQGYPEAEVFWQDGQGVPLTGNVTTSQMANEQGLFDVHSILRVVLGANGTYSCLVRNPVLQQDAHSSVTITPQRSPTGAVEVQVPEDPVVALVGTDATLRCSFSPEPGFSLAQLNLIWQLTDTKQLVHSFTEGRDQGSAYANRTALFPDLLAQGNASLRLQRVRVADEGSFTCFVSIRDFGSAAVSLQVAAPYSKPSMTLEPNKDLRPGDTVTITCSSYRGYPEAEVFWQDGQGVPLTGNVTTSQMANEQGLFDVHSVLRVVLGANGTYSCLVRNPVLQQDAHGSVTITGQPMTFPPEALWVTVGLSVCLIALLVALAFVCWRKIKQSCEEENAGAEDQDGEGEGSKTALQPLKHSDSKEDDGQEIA

T3: cyno B7H3 on overexpressing cells (cyno, UniProt A0A7N9CYV2 29-534)
T3 sequence: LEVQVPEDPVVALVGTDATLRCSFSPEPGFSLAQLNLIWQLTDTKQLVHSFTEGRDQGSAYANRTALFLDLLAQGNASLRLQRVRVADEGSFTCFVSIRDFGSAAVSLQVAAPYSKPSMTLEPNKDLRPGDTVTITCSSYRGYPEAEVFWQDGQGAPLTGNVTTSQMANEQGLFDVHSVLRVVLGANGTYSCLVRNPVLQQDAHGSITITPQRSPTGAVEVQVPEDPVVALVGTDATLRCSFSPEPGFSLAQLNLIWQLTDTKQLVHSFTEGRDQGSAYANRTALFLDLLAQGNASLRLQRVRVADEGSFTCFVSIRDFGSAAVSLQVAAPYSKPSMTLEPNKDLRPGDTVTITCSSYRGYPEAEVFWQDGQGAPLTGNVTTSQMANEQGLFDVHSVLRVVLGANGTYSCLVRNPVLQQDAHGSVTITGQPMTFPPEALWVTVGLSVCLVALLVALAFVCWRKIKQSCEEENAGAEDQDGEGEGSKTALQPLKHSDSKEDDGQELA

T4: ECD of human 4Ig-B7H3 (Sinobiological, Cat: 11188-H08H) (human, UniProt Q5ZPR3 29-466)
T4 construct: Bought protein; also called recombinant B7H3
T4 sequence: T1 sequence

B1: BGA-3726 (purified anti-B7H3 mAb as used in Examples 2-4) (antibody, V domains shown)
VH: QVQLQESGPGLVKPSGTLSLTCAVSGGSISTSNWWNWVRQSPGKGLEWIGEIYPTGNTNYSPSLKSRVTISIDKSKNQFSLKLNSVTAADTAVYYCARGWNWFDPWGQGTLVTVSS
VL: EIVLTQSPGTLSLSPGERATLSCRTSQSINGILLAWYQQKPGQAPRLLIYGASSRATGIPDRFSGSGSGTDFTLSISRLEPEDFAVYYCQQYGSSPRTFGQGTKVEIK
notes: It was captured by anti-mouse IgG Fc in SPR and detected with anti-mouse IgG in FACS; The source mice make human variable and rat constant regions; also called BGA-3276
B2: BGA-3726 in human full-length format (human IgG1 variant IgG1mf / kappa) (antibody, V domains shown)
VH: B1 VH
VL: EIVLTQSPGTLSLSPGERATLSCRTSQSINGILLAWYQQKPGQAPRLLIYGASSRATGIPDRFSGSGSGTDFTLSISRLEPEDFAVYYCQQYGSSPRTFGQGTKVEIKR
B3: BGA-4498 (BGA-3726 variant comprising W96Y in HCDR3) (antibody, human IgG1, kappa, V domains shown)
VH: B1 VH with W100Y
VL: B2 VL
B4: BGA-4380 (BGA-3726 variant comprising N29Q in LCDR1) (antibody, human IgG1, kappa, V domains shown)
VH: B1 VH
VL: B2 VL with N30Q
B5: BGA-4265 (BGA-3726 variant comprising G30A in LCDR1) (antibody, human IgG1, kappa, V domains shown)
VH: B1 VH
VL: B2 VL with G31A
B6: BGA-5488 (W34Y in HCDR1, W96Y and W98Y in HCDR3 and G30A in LCDR1 based on BGA-3726) (antibody, human IgG1, kappa, V domains shown)
VH: B1 VH with W34Y, W100Y, W102Y
VL: B2 VL with G31A
B7: BGA-4269 (BGA-3726 variant comprising W98Y in HCDR3) (antibody, human IgG1, kappa, V domains shown)
VH: B1 VH with W102Y
VL: B2 VL
B8: BGA-4826 (BGA-3726 variant comprising W34Y in HCDR1) (antibody, human IgG1, kappa, V domains shown)
VH: B1 VH with W34Y
VL: B2 VL
B9: BGA-6938 (W34Y in HCDR1, W96Y in HCDR3 and G30A in LCDR1 based on BGA-3726), human IgG1 variant IgG1mf / kappa format (antibody, V domains shown)
VH: B1 VH with W34Y, W100Y
VL: B2 VL with G31A

Legend:
[1] = molecular target: T1, human ECD-4Ig-B7H3-hFc; assay: SPR (BIAcore T-200), antibody captured by anti-mouse IgG Fc, antigen in flow, 1:1 Langmuir model
Source text: After immobilization, serial dilutions of the ectodomain of human or cyno B7H3 were passed over the chip. […] Thus, the light gray lines are serial dilutions of human B7H3 protein, and the dark gray lines are fitted curves corresponding to different human B7H3 concentrations. The dotted line is the highest concentration of B7H3 protein. The results were used to calculate the rates of association (Kon) and dissociation (Koff) for BGA-3295.
Briefly, anti-mouse IgG Fc antibody was immobilized on an activated CM5 biosensor chip (Cat. No. BR100530, GE Life Sciences). Purified antibodies were flowed over the chip surface and captured by anti-mouse IgG Fc antibody. Then a serial dilution of human ECD-4Ig-B7H3-hFc was flowed over the chip surface and changes in surface plasmon resonance signals were analyzed to calculate the association rates (kₒₙ) and dissociation rates (koff) by using the one-to-one Langmuir binding model (BIA Evaluation Software, GE Life Sciences). The equilibrium dissociation constant (KD) was calculated as the ratio koff/kₒₙ.

[2] = molecular target: T2, human 4Ig-B7H3 on overexpressing cells …; assay: FACS on human 4Ig-B7H3 overexpressing cells
Method: (§1) The binding affinity of anti-B7H3 mAb to human 4Ig-B7H3 and cyno B7H3 overexpressing cell lines were determined by FACS. Briefly, human or cyno B7H3 overexpressing cells were incubated with serially diluted purified antibodies, washed, and incubated with anti-mouse IgG secondary Ab conjugated to APC. After incubation and washing, fluorescence was measured by flow cytometry.

[3] = molecular target: T3, cyno B7H3 on overexpressing cells; assay: FACS on cyno B7H3 overexpressing cells
Method: as §1

[4] = molecular target: T2, human 4Ig-B7H3 on overexpressing cells …; assay: FACS on live NK92mi/B7H3 cells, goat anti-human IgG detection, Test1
Method: (§2) Goat anti-human IgG was used as the second antibody to detect antibody binding to the cell surface. EC₅₀ values for dose-dependent binding to human native B7H3 were determined by fitting the dose-response data to the four-parameter logistic model with GraphPad Prism.

[5] = molecular target: T4, ECD of human 4Ig-B7H3 (Sinobiological, …); assay: SPR, antibody captured on anti-human Fc surface, Test 1
Source text: (§3) For affinity determination, antibodies were captured by an anti-human Fc surface, and used in the affinity-assay based on surface plasmon resonance (SPR) technology. The results of SPR-determined binding profiles of anti-B7H3 antibodies to the ECD of human 4Ig-B7H3 (Sinobiological, Cat: 11188-H08H) are summarized in Table 5.

[6] = molecular target: T4, ECD of human 4Ig-B7H3 (Sinobiological, …); assay: SPR, antibody captured on anti-human Fc surface, Test 2
Source text: as §3

[7] = molecular target: T2, human 4Ig-B7H3 on overexpressing cells …; assay: FACS on live NK92mi/B7H3 cells, goat anti-human IgG detection, Test2
Method: as §2

Binder	Kd [5]	koff [5]	kon [5]	Kd [6]	koff [6]	kon [6]	further results
B1	–	–	–	–	–	–	Kd [1]: 0.0124 nM; koff [1]: 4.49e-06 s⁻¹; kon [1]: 363000 M⁻¹ s⁻¹; EC50 [2]: 1.91 nM; EC50 [3]: 1.32 nM
B2	0.424 nM	0.000136 s⁻¹	321000 M⁻¹ s⁻¹	0.47 nM	0.000207 s⁻¹	442000 M⁻¹ s⁻¹	EC50 [4]: 1.44 nM
B3	0.632 nM	0.000199 s⁻¹	315000 M⁻¹ s⁻¹	–	–	–	–
B4	0.635 nM	0.000237 s⁻¹	373000 M⁻¹ s⁻¹	–	–	–	–
B5	0.308 nM	0.000128 s⁻¹	414000 M⁻¹ s⁻¹	–	–	–	–
B6	–	–	–	1.11 nM	0.000326 s⁻¹	295000 M⁻¹ s⁻¹	EC50 [7]: 1.45 nM
B7	–	–	142000 M⁻¹ s⁻¹	–	–	–	–
B8	0.596 nM	0.000171 s⁻¹	288000 M⁻¹ s⁻¹	–	–	–	–
B9	–	–	–	0.443 nM	0.000224 s⁻¹	506000 M⁻¹ s⁻¹	EC50 [7]: 1.19 nM
